Experimental data published in publication PMC8682488, “c-di-GMP Homeostasis Is Critical for Heterocyst Development in Anabaena sp. PCC 7120” (Frontiers in Microbiology, 2021).

What was measured:
[1] = molecular target: T1, CdgS (Nostoc sp. PCC 7120 = FACHB-418, UniProt A0ACD7RTW6); experiment: HPLC, diguanylate cyclase product formation; type: biochemical; settings: DGC activity (GTP to c-di-GMP); 50 μM GTP, 2 μM protein, pH 8.0, 10 mM MgCl2, 25 °C, 30 min
T1 construct: gene all2874; N-terminal REC and C-terminal GGDEF domain, two C-terminal Strep-tags (pHTwinStrep), E. coli BL21(DE3), Strep-Tactin purified
T1 sequence (A0ACD7RTW6 1-330): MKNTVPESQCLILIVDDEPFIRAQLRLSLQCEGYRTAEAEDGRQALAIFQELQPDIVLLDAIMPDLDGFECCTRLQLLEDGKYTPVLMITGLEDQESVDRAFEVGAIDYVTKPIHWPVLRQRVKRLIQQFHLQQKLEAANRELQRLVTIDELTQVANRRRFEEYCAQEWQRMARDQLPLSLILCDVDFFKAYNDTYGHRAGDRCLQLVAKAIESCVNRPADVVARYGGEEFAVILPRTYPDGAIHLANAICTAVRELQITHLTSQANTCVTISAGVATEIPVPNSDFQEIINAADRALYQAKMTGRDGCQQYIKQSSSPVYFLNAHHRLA

[2] = substrate: Nc1nc2c(ncn2[C@@H]2O[C@H](COP(=O)(O)OP(=O)(O)OP(=O)(O)O)[C@@H](O)[C@H]2O)c(=O)[nH]1; experiment: HPLC, diguanylate cyclase steady-state kinetics; type: biochemical, Nostoc sp. PCC 7120 = FACHB-418; settings: DGC activity (GTP to c-di-GMP), GGDEF domain, 50 mM Tris-HCl pH 8.0, 10 mM MgCl2, 0.5 mM EDTA, 300 mM NaCl, 25 °C
Excerpt: HPLC, diguanylate cyclase steady-state kinetics on CdgSH

[3] = substrate: Nc1nc2c(ncn2[C@@H]2O[C@@H]3CO[P@](=O)(O)O[C@H]4[C@@H](O)[C@H](n5cnc6c(=O)[nH]c(N)nc65)O[C@@H]4CO[P@](=O)(O)O[C@H]3[C@H]2O)c(=O)[nH]1; experiment: HPLC, c-di-GMP phosphodiesterase steady-state kinetics; type: biochemical, Nostoc sp. PCC 7120 = FACHB-418; settings: PDE activity (c-di-GMP to pGpG), EAL domain, 50 mM Tris-HCl pH 8.0, 10 mM MgCl2, 0.5 mM EDTA, 300 mM NaCl, 25 °C
Excerpt: HPLC, c-di-GMP phosphodiesterase steady-state kinetics on CdgSH

Molecule | HPLC, diguanylate cyclase product formation [1] | Km [2] | kcat [2] | Km [3] | kcat [3]
Nc1nc2c(ncn2[C@@H]2O[C@H](COP(=O)(O)OP(=O)(O)OP(=O)(O)O)[C@@H](O)[C@H]2O)c(=O)[nH]1 [GTP] | CdgS could convert the substrate GTP to c-di-GMP |  |  |  | 
CdgSH (Nostoc sp. PCC 7120 = FACHB-418) (protein, FHA-PAS-GAF-GGDEF-EAL protein, two C-terminal Strep-tags (pHTwinStrep), E. coli BL21(DE3), Strep-Tactin purified) MPGNEWEKIRHILVVQDLQGQRTIPLQEATYSIGRHTSNAIVLHSRSVSRQHAILLRVTLPETDQCSFRIIDGNFKGQGSTNGLLVNGTRCFSHNLRHGDVINFGSHQAQAKYYAISNISEKAFFASADVEDLSTFLSELSQPVNPFQTLVVDPEFEGASETALARLASFPELIPNPIIETDLEGRVTYINPAASVKFPDLRELGKQHPILKDILNIAENPKINPFVREVTVGHAVYEQSVHNLPESDLIRTYIIRDVTEQKQAEAELHQRDRLLQAVAEAANWLVVEMNYDTAIEKALAVVGEAAQADRAYLFKNHPHPITGKRAVSLQFEWYGSDLQPSIQDWQNQLYQSTELSRWYSVLSSGKSINELRRKLPVAERELLERQGIQSLLLVPLGLEDQFWGYLGLADCTQERYWSRHEESTLLTMAASISGAWQRQQVEEKIRYQALHDLLTGLPNRLLFNELLAKALANASRSQESLAVMFLDLDRFKVINDTLGHTLGDRLLQSVAQRLRDCLRSGDTVSRWGGDEFTILLPHISYIEEVTQAACRILKALEEVFHLDGHELYVSASLGIALLDHHSPDAEALIKHADAALYHAKDEGRNNYQFYTTSLSGKTPELLTLEKSLRYALEKQELKVYYQPRVNILTGQITGMEALLRWQHPEMGIVAPSIFIPIAEETGLIIPIGEWVLRTACMQNRAWQEAGLPPVQMAVNLSPKQFRQPTLLELVSAILAETGLAPEFLELEITESTAIEDIDFTRSVLENLQQMGVDIAIDDFGTGHSSLSRLQLLPLHNLKIDGSFIKALTTDSKVAHIVKAIVTLGRSLGLRLTAEGVEKQEELDFLKSINCQDVQGFLFHKPLSAEKATEILQGEKKHATL |  | 37.2 µM | 0.39 s⁻¹ | 23.5 µM | 1.26 s⁻¹
CdgSH (Nostoc sp. PCC 7120 = FACHB-418; D530A/E531A) (protein, FHA-PAS-GAF-GGDEF-EAL protein, two C-terminal Strep-tags (pHTwinStrep), E. coli BL21(DE3), Strep-Tactin purified) MPGNEWEKIRHILVVQDLQGQRTIPLQEATYSIGRHTSNAIVLHSRSVSRQHAILLRVTLPETDQCSFRIIDGNFKGQGSTNGLLVNGTRCFSHNLRHGDVINFGSHQAQAKYYAISNISEKAFFASADVEDLSTFLSELSQPVNPFQTLVVDPEFEGASETALARLASFPELIPNPIIETDLEGRVTYINPAASVKFPDLRELGKQHPILKDILNIAENPKINPFVREVTVGHAVYEQSVHNLPESDLIRTYIIRDVTEQKQAEAELHQRDRLLQAVAEAANWLVVEMNYDTAIEKALAVVGEAAQADRAYLFKNHPHPITGKRAVSLQFEWYGSDLQPSIQDWQNQLYQSTELSRWYSVLSSGKSINELRRKLPVAERELLERQGIQSLLLVPLGLEDQFWGYLGLADCTQERYWSRHEESTLLTMAASISGAWQRQQVEEKIRYQALHDLLTGLPNRLLFNELLAKALANASRSQESLAVMFLDLDRFKVINDTLGHTLGDRLLQSVAQRLRDCLRSGDTVSRWGGAAFTILLPHISYIEEVTQAACRILKALEEVFHLDGHELYVSASLGIALLDHHSPDAEALIKHADAALYHAKDEGRNNYQFYTTSLSGKTPELLTLEKSLRYALEKQELKVYYQPRVNILTGQITGMEALLRWQHPEMGIVAPSIFIPIAEETGLIIPIGEWVLRTACMQNRAWQEAGLPPVQMAVNLSPKQFRQPTLLELVSAILAETGLAPEFLELEITESTAIEDIDFTRSVLENLQQMGVDIAIDDFGTGHSSLSRLQLLPLHNLKIDGSFIKALTTDSKVAHIVKAIVTLGRSLGLRLTAEGVEKQEELDFLKSINCQDVQGFLFHKPLSAEKATEILQGEKKHATL |  |  |  | 31.0 µM | 1.78 s⁻¹
CdgSH (Nostoc sp. PCC 7120 = FACHB-418; E656A/L658A) (protein, FHA-PAS-GAF-GGDEF-EAL protein, two C-terminal Strep-tags (pHTwinStrep), E. coli BL21(DE3), Strep-Tactin purified) MPGNEWEKIRHILVVQDLQGQRTIPLQEATYSIGRHTSNAIVLHSRSVSRQHAILLRVTLPETDQCSFRIIDGNFKGQGSTNGLLVNGTRCFSHNLRHGDVINFGSHQAQAKYYAISNISEKAFFASADVEDLSTFLSELSQPVNPFQTLVVDPEFEGASETALARLASFPELIPNPIIETDLEGRVTYINPAASVKFPDLRELGKQHPILKDILNIAENPKINPFVREVTVGHAVYEQSVHNLPESDLIRTYIIRDVTEQKQAEAELHQRDRLLQAVAEAANWLVVEMNYDTAIEKALAVVGEAAQADRAYLFKNHPHPITGKRAVSLQFEWYGSDLQPSIQDWQNQLYQSTELSRWYSVLSSGKSINELRRKLPVAERELLERQGIQSLLLVPLGLEDQFWGYLGLADCTQERYWSRHEESTLLTMAASISGAWQRQQVEEKIRYQALHDLLTGLPNRLLFNELLAKALANASRSQESLAVMFLDLDRFKVINDTLGHTLGDRLLQSVAQRLRDCLRSGDTVSRWGGDEFTILLPHISYIEEVTQAACRILKALEEVFHLDGHELYVSASLGIALLDHHSPDAEALIKHADAALYHAKDEGRNNYQFYTTSLSGKTPELLTLEKSLRYALEKQELKVYYQPRVNILTGQITGMAAALRWQHPEMGIVAPSIFIPIAEETGLIIPIGEWVLRTACMQNRAWQEAGLPPVQMAVNLSPKQFRQPTLLELVSAILAETGLAPEFLELEITESTAIEDIDFTRSVLENLQQMGVDIAIDDFGTGHSSLSRLQLLPLHNLKIDGSFIKALTTDSKVAHIVKAIVTLGRSLGLRLTAEGVEKQEELDFLKSINCQDVQGFLFHKPLSAEKATEILQGEKKHATL |  | 34.8 µM | 0.12 s⁻¹ |  | 
